Measured values from patent US20220193132A1 (NATIONAL RESEARCH COUNCIL OF CANADA, published 2022).

Tests used:
[1] = target: T1, EGFRvIII amino acid residues 15 to 37 with Glu29 to Ala mutation (human); assay: yeast display flow cytometry, Myc-normalized;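 note: Anti-EGFRvIII monoclonal antibodies tested by flow cytometry on yeast displaying alanine-substituted fragments, two-color indirect fluorescence with anti-Myc signal tracking fusion protein expression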
T1 construct: mutation is already in the entry
T1 peptide: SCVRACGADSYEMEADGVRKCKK
Description: (§1) Assessment of the binding of anti-EGFRvIII mAbs to the fusion proteins expressed on yeast cell surface was done by flow cytometry analysis. Briefly, yeast cells were labeled with both the anti-hEGFRvIII mAb and chicken anti-Myc antibody, the latter being used to monitor the level of expression of the fusion protein. Following a wash step, binding of the primary antibodies is probed by a two-color indirect fluorescence labeling using secondary antibodies specific for mouse and chicken antibodies, respectively.
(§2) To further characterize mAb epitopes within the EGFRvIII 15-37 region, an alanine scan of this region was performed, and modified fragments were expressed at the surface of the yeast. […] The resulting peptides were expressed at the surface of the yeast and each anti-EGFRvIII mAbs was tested on the corresponding yeast mutant strain by flow cytometry analysis. Thus, this assay determined the contribution of each amino acid(s) in the monoclonal antibody binding.

[2] = target: T2, EGFRvIII amino acid residues 15 to 37 with Ser24 to Ala mutation (human); assay: yeast display flow cytometry, Myc-normalized;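 note: Anti-EGFRvIII monoclonal antibodies tested by flow cytometry on yeast displaying alanine-substituted fragments, two-color indirect fluorescence with anti-Myc signal tracking fusion protein expression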
T2 construct: mutation is already in the entry
T2 peptide: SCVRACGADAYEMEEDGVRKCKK
Description: as §1, §2

[3] = target: T3, EGFRvIII amino acid residues 15 to 37 with Gly21 to Ala mutation (human); assay: yeast display flow cytometry, Myc-normalized;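 note: Anti-EGFRvIII monoclonal antibodies tested by flow cytometry on yeast displaying alanine-substituted fragments, two-color indirect fluorescence with anti-Myc signal tracking fusion protein expression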
T3 construct: mutation is already in the entry
T3 peptide: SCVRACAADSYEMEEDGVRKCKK
Description: as §1, §2

[4] = target: T4, EGFRvIII amino acid residues 15 to 37 with Asp23 to Ala mutation (human); assay: yeast display flow cytometry, Myc-normalized;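 note: Anti-EGFRvIII monoclonal antibodies tested by flow cytometry on yeast displaying alanine-substituted fragments, two-color indirect fluorescence with anti-Myc signal tracking fusion protein expression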
T4 construct: mutation is already in the entry
T4 peptide: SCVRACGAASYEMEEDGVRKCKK
Description: as §1, §2

[5] = target: T5, EGFRvIII amino acid residues 15 to 37 with Arg18 to Ala mutation (human); assay: yeast display flow cytometry, Myc-normalized
T5 construct: mutation is already in the entry
T5 peptide: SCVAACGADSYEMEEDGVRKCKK
Description: as §1, §2

[6] = target: T6, EGFRvIII amino acid residues 15 to 37 with Glu28 to Ala mutation (human); assay: yeast display flow cytometry, Myc-normalized
T6 construct: mutation is already in the entry
T6 peptide: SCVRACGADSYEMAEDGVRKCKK
Description: as §1, §2

[7] = target: T7, EGFRvIII amino acid residues 15 to 37 with Tyr25 to Ala mutation (human); assay: yeast display flow cytometry, Myc-normalized
T7 construct: mutation is already in the entry
T7 peptide: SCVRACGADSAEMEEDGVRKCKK
Description: as §1, §2

[8] = target: T8, EGFRvIII amino acid residues 15 to 37 with Asp30 to Ala mutation (human); assay: yeast display flow cytometry, Myc-normalized
T8 construct: mutation is already in the entry
T8 peptide: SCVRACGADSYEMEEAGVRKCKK
Description: as §1, §2

[9] = target: T9, EGFRvIII amino acid residues 15 to 37 with Ser15 to Ala mutation (human); assay: yeast display flow cytometry, Myc-normalized
T9 construct: mutation is already in the entry
T9 peptide: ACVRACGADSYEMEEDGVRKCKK
Description: as §1, §2

[10] = target: T10, EGFRvIII amino acid residues 15 to 37 with Cys20 to Ala mutation (human); assay: yeast display flow cytometry, Myc-normalized
T10 construct: mutation is already in the entry
T10 peptide: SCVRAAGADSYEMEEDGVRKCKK
Description: as §1, §2

[11] = target: T11, EGFRvIII amino acid residues 15 to 37 with Lys37 to Ala mutation (human); assay: yeast display flow cytometry, Myc-normalized
T11 construct: mutation is already in the entry
T11 peptide: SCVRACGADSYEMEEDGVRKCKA
Description: as §1, §2

[12] = target: T12, EGFRvIII amino acid residues 15 to 37 with Val17 to Ala mutation (human); assay: yeast display flow cytometry, Myc-normalized
T12 construct: mutation is already in the entry
T12 peptide: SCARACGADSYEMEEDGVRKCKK
Description: as §1, §2

[13] = target: T13, EGFRvIII amino acid residues 15 to 37 with Met27 to Ala mutation (human); assay: yeast display flow cytometry, Myc-normalized
T13 construct: mutation is already in the entry
T13 sequence (peptide, as listed by the source, change not shown): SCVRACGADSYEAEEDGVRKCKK
Description: as §1, §2

[14] = target: T14, EGFRvIII, full length, overexpressed on glioblastoma cells (human, UniProt P00533 298-623); assay: cell-based or functional assay
[15] = target: T15, EGFRvIII amino acid residues 15 to 37 with Lys34 to Ala mutation (human); assay: yeast display flow cytometry, alanine scan
T15 construct: mutation is already in the entry
T15 peptide: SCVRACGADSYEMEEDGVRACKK
Description: as §1, §2

[16] = target: T16, EGFRvIII amino acid residues 15 to 37 with Arg33 to Ala mutation (human); assay: yeast display flow cytometry, alanine scan
T16 construct: mutation is already in the entry
T16 peptide: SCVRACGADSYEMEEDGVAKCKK
Description: as §1, §2

[17] = target: T17, EGFRvIII amino acid residues 15 to 37 with Lys36 to Ala mutation (human); assay: yeast display flow cytometry, alanine scan
T17 construct: mutation is already in the entry
T17 peptide: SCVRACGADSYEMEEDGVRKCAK
Description: as §1, §2

[18] = target: T18, EGFRvIII amino acid residues 15 to 37 with Val32 to Ala mutation (human); assay: yeast display flow cytometry, alanine scan
T18 construct: mutation is already in the entry
T18 peptide: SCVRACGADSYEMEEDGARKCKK
Description: as §1, §2

[19] = target: T19, EGFRvIII amino acid residues 15 to 37 with Cys35 to Ala mutation (human); assay: yeast display flow cytometry, alanine scan
T19 construct: mutation is already in the entry
T19 peptide: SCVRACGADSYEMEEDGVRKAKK
Description: as §1, §2

[20] = target: T20, EGFRvIII amino acid residues 15 to 37 with Glu26 to Ala mutation (human); assay: yeast display flow cytometry, alanine scan
T20 construct: mutation is already in the entry
T20 peptide: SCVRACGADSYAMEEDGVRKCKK
Description: as §1, §2

[21] = target: T21, recombinant human EGFRvIII protein (extracellular domain), native (human, UniProt P00533 298-623); assay: ELISA Exp 1, mAb supernatant
T21 construct: also called hEGFRvIII

[22] = target: T22, recombinant human wild type EGFR protein (extracellular domain), denatured (human, UniProt P00533 25-645); assay: ELISA Exp 1, mAb supernatant
T22 construct: Same protein as m23 after 95 C for 5 min in PBS with 40 mM DTT (denatured, reduced); also called wt EGFR Denatured

[23] = target: T23, recombinant human EGFRvIII protein (extracellular domain), denatured (human, UniProt P00533 298-623); assay: ELISA Exp 1, mAb supernatant
T23 construct: Same protein as m21 after 95 C for 5 min in PBS with 40 mM DTT (denatured, reduced); also called EGFRvIII Denatured

[24] = target: T24, recombinant human wild type EGFR protein (extracellular domain), native (human, UniProt P00533 25-645); assay: ELISA Exp 1, mAb supernatant
T24 construct: also called wt EGFR; EGFR WT

[25] = target: T14, EGFRvIII, full length, overexpressed on …; assay: flow cytometry dose-response on U87MG-EGFRvIII cells, apparent Kd
Protocol: (§3) Prior to analysis, cells were plated such that they were not more than 80% confluent on the day of analysis. Unless otherwise stated, all media are kept are 4° C. and all incubations are performed on wet ice. Cells were washed in PBS, harvested by the addition of cell dissociation buffer (Sigma), centrifuged and resuspended in complete medium at a cell density of 2×10⁶ cells/mL. Fifty μL/well of cells were distributed in a polypropylene v-bottom 96 well plate and serial 1/3 dilutions of purified mAbs starting at 100 nM were added and incubated for 2 hours. […] Cells were washed and re-suspended in medium containing Propidium iodide to exclude dead cells from analysis. Samples were filtered through a 60 μm nylon mesh filter plate (Millipore, Ireland) to remove cell aggregates. Flow cytometry analyses were performed on 2,000 viable single-cells events gated on forward scattering, side scattering parameters and propidium iodide dye exclusion using a BD-LSRFortessa flow cytometer (Becton-Dickinson Biosciences, CA, USA) and a standard filter set using BD FACSDiva™ acquisition software, according to manufacturer's instructions.
(§4) Specific detection of antibody binding was calculated as the mean fluorescent intensity of binding to each primary antibody after background level subtraction of the mean fluorescent intensity of binding of mouse IgG control. The data were analyzed with GraphPad Prism v 6.0 software using one-site specific binding with Hill slope non-linear regression curve fit model to determine Bmax (maximum specific binding) and Kdₐₚₚ (concentration needed to achieve a half-maximum binding at equilibrium) for each mAb tested.

[26] = target: T21, recombinant human EGFRvIII protein …; assay: ELISA Exp 2, purified mAb 1 ug/ml;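 note: ELISA of purified mAb binding to plate-coated antigen, native or heat/DTT-denatured, with pNPP substrate developed for 30 min and incubations at room temperature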
[27] = target: T22, recombinant human wild type EGFR …; assay: ELISA Exp 2, purified mAb 1 ug/ml;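 note: ELISA of purified mAb binding to plate-coated antigen, native or heat/DTT-denatured, with pNPP substrate developed for 30 min and incubations at room temperature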
[28] = target: T23, recombinant human EGFRvIII protein …; assay: ELISA Exp 2, purified mAb 1 ug/ml;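 note: ELISA of purified mAb binding to plate-coated antigen, native or heat/DTT-denatured, with pNPP substrate developed for 30 min and incubations at room temperature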
[29] = target: T24, recombinant human wild type EGFR …; assay: ELISA Exp 2, purified mAb 1 ug/ml;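 note: ELISA of purified mAb binding to plate-coated antigen, native or heat/DTT-denatured, with pNPP substrate developed for 30 min and incubations at room temperature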
[30] = target: T25, EGFRvIII fragment amino acid residues 15 to 37, displayed on yeast (human); assay: yeast surface display, flow cytometry
T25 construct: also called aa 15-37; fragment 15-37
T25 peptide: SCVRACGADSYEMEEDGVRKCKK
Description: as §1

[31] = target: T14, EGFRvIII, full length, overexpressed on …; assay: cell-based or functional assay; remark: listed apart in the source
[32] = target: T14, EGFRvIII, full length, overexpressed on …; assay: flow cytometry dose-response on U87MG EGFRvIII cells, apparent Kd (n=3)
Protocol: Prior to analysis, cells were plated such that they were not more than 80% confluent on the day of analysis. Unless otherwise stated, all media are kept are 4° C. and all incubations are performed on wet ice. Cells were washed in PBS, harvested by the addition of cell dissociation buffer (Sigma), centrifuged and resuspended in complete medium at a cell density of 2×10⁶ cells/mL. Fifty μL/well of cells were distributed in a polypropylene v-bottom 96 well plate and serial 1/3 dilutions of purified mAbs starting at 100 nM were added and incubated for 2 hours. […] Cells were washed and re-suspended in medium containing Propidium iodide to exclude dead cells from analysis. Samples were filtered through a 60 μm nylon mesh filter plate (Millipore, Ireland) to remove cell aggregates. […]
as §4

[33] = target: T14, EGFRvIII, full length, overexpressed on …; assay: flow cytometry dose-response on DKMG EGFRvIII cells, apparent Kd (n=1)
Protocol: as §3
(§5) These cells were grown in RPMI and 10% fetal bovine serum using standard culturing conditions.

[34] = target: T14, EGFRvIII, full length, overexpressed on …; assay: flow cytometry dose-response on DKMG EGFRvIII cells (n=1)
Protocol: as §3, §5

[35] = target: T26, wild type human EGFR, full length, overexpressed on U87MG cells (human, UniProt P00533 25-1210); assay: flow cytometry dose-response, U87MG EGFR wt cells
T26 construct: also called U87MG-EGFR wt; U87 WT
Protocol: as §3, §4

B1: F265-9C9 (antibody, V domains shown)
VH: QVQLQQPGAELVKPGASVKLSCKASGYTFTSYWMHWVKQRPGQDLEWIGEIDPSDSYTNYNQKFKGKATLTVDKSSSTAYIQLSSLTSEDSALYYCARFDFAYWGQGTLVTVSA
VL: EIVLTQSPTLMAASPGEKVTITCSVSSSISSSNLHWYQQKSETSPKPWIYDTSNLASGVPIRFSGSGSGTSYSLTISSVEAEDAATYYCQQWSSYPLTFGSGTKLEIK
notes: Mouse hybridoma mAb
In the case of B1, the “% of binding vs wild-type fragment 15-37” value [1] is reported as 138%, the “% of binding vs wild-type fragment 15-37” value [2] is reported as 211% and the “% of binding vs wild-type fragment 15-37” value [3] is reported as 160%. For the same binder, the “% of binding vs wild-type fragment 15-37” value [4] was 63.2%, the “% of binding vs wild-type fragment 15-37” value [5] was 205% and the “% of binding vs wild-type fragment 15-37” value [6] was 87.1%. The “% of binding vs wild-type fragment 15-37” value [7] was 152%, the “% of binding vs wild-type fragment 15-37” value [8] was 22.6% and the “% of binding vs wild-type fragment 15-37” value [9] was 115%. For the same binder, the “% of binding vs wild-type fragment 15-37” value [10] was 51.9%, the “% of binding vs wild-type fragment 15-37” value [11] was 108% and the “% of binding vs wild-type fragment 15-37” value [12] was 87.5%. For the same binder, the “% of binding vs wild-type fragment 15-37” value [13] was 159%, the “% survival (DM1 secondary-conjugate ADC surrogate assay, vs mouse IgG)” value [14] was 82% and the binding result [15] was “no binding (tested: 0-15% of wild-type binding)”. B1: no binding (tested: 0-15% of wild-type binding) [16]; no binding (tested: 0-15% of wild-type binding) [17]; no binding (tested: 0-15% of wild-type binding) [18]. The binding result [19] was “no binding (tested: 0-15% of wild-type binding)”, the binding result [20] was “no binding (tested: 0-15% of wild-type binding)” and the “ELISA absorbance 405 nm” value [21] was 1.2 A405. The “ELISA absorbance 405 nm” value [22] was 0.064 A405, the “ELISA absorbance 405 nm” value [23] was 1.72 A405 and the “ELISA absorbance 405 nm” value [24] was 0.21 A405. The Kd [25] was over 200 nM, the “ELISA absorbance 405 nm” value [26] was 1.29 A405 and the “ELISA absorbance 405 nm” value [27] was 0.003 A405. For the same binder, the “ELISA absorbance 405 nm” value [28] was 0.503 A405, the “ELISA absorbance 405 nm” value [29] was 0.038 A405 and the binding result [30] was “binds”. For the same binder, the “% internalization (pHrodo surrogate assay, vs 225 mAb)” value [31] was 87%.

B2: hFc-4E11 (antibody, human IgG1, kappa, V domains shown)
VH: DVQLQESGPGLVKPSQSLSLTCTVTGYSITSDYAWNWIRQFPGNKLEWMGYIGYNGRTSYNPSLKSRISITRDTSKNQFFLQLNYVTTEDTATFYCARLGRGFAYWGQGTLVTVSA
VL: DILMTQSPSSMSVSLGDTVSITCHASQGINSNIGWLLQKPGKSFKGLIYHGTNLEDGVPSRFSGSGSGTDYSLTISSLESEDFADYYCVQYAQFPYTFGGGTKLEIKR
notes: Chimeric antibody, mouse variable regions on human IgG1 / human kappa, produced in CHO cells; also called chimeric 4E11
B2 showed a Kd [32] of 2.6 nM, a Kd [33] of 1.43 nM and a Bmax [34] of 12100. B2: no binding [35].
